Test [1] has as its target T1, human GP2 (AA 1-518) triple tagged with Fc-Myc-6×His (human, UniProt P55259 29-518).
T1 construct: also called human GP2-Fc; not shown: Fc and Myc tags
Kind of test: validated interaction (cell culture potency assay and/or SPR).

Test [2] deals with T2, Human Adeno-Associated Virus Receptor (AAVR) PKD2 domain (AA 401-498) tagged with 6×His (human, UniProt Q8IZA0 401-498).
T2 construct: range 401-498; also called human AAVR PDK2 domain
T2 sequence: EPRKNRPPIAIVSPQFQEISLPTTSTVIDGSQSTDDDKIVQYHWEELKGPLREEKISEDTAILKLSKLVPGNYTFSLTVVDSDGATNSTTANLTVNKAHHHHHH
In words: pull-down, His-tagged bait on Ni-NTA, AAV prey, Western blot (FIG. 21). For orientation: Immunoblotting shows a protein as a band on a membrane.

For test [3], the target named is T3, mouse LRP6 extracellular domain (AA20-1366) tagged with 6×His tag (mouse, UniProt O88572 20-1366).
T3 construct: also called full length extracellular domain of mouse LRP6
T3 sequence: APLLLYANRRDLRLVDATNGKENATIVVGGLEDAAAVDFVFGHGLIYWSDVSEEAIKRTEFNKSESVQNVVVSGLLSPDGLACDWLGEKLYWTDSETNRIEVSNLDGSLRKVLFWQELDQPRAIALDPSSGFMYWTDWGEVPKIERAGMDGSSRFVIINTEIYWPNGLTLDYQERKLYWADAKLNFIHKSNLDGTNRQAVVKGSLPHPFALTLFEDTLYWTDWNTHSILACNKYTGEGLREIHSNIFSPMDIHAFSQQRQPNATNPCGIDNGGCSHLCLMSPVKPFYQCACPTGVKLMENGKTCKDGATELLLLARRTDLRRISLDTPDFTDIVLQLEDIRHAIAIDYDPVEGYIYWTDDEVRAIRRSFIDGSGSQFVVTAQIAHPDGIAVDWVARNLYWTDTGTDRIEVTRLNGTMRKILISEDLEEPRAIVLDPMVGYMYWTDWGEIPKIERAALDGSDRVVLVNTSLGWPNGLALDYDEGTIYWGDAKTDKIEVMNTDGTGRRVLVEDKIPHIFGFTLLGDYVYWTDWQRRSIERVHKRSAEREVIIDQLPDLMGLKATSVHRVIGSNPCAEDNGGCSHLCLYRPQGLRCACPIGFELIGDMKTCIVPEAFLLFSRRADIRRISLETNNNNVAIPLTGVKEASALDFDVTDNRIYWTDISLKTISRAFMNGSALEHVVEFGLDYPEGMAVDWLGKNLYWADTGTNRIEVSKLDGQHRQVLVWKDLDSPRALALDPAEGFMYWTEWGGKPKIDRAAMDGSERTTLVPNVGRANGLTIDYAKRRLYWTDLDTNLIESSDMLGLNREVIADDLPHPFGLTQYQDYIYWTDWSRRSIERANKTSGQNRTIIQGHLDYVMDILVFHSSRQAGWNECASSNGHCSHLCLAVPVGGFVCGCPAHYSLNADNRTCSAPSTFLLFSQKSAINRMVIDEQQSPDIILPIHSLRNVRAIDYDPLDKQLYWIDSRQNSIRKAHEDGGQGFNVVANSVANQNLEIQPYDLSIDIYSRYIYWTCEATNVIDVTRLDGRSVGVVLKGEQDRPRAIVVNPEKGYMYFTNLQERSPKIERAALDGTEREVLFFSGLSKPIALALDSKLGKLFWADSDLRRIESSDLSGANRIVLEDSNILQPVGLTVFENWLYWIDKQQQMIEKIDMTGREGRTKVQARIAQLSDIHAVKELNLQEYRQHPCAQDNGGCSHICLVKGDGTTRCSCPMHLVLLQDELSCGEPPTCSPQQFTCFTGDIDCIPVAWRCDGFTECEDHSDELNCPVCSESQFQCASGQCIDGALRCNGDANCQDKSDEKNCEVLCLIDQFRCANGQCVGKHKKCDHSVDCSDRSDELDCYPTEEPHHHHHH
The description is as above.

In test [4] the target is T4, human pancreatic secretory granule membrane major glycoprotein GP2 (GP2), on cells (human, UniProt P55259 29-512).
T4 construct: also called glycoprotein 2; hGP2
T4 sequence (P55259 29-512 limits assumed): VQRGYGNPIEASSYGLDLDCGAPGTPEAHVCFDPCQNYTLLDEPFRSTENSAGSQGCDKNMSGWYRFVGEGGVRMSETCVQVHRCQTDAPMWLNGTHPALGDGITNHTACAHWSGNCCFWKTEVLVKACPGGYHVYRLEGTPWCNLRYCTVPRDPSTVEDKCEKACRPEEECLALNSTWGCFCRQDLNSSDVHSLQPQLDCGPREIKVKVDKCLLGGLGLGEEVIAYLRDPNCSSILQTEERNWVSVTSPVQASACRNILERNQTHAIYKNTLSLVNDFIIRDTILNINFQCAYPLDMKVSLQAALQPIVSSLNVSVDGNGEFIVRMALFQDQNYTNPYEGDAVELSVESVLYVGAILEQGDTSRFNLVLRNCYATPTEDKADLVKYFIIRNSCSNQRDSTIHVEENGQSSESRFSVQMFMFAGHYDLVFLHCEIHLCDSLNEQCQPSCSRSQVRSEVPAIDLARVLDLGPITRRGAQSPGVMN
In words: cell microarray screen hit (membrane).
Method: (§1) After these controls, the six-capsid pool was tested in a full screen of approximately 6400 proteins, including 6000 human plasma membrane proteins and secreted and cell surface-tethered proteins, as well as approximately 400 heterodimers. […] To assign these hits to specific capsids, follow-up deconvolution screens were performed with each individual capsid from the pool (FIG. 12E). DNA oligos for the 22 identified hits, as well as the positive control CD86, were affixed in duplicate locations to new slides. A negative control condition with no AAV analyte and a positive control condition with CTLA4-Fc (CD86 binder) were also included.

Test [5] addresses T5, human low-density lipoprotein receptor-related protein 6 (LRP6), on cells (human, UniProt O75581 20-1613).
T5 construct: also called hLRP6
In words: cell microarray screen hit (membrane).
Method: as §1

The target of test [6] is T6, Mouse SCA1 (LY6A), on cells (mouse, UniProt P05533 27-112).
T6 construct: whole, on cells; also called mouse LY6A
T6 sequence: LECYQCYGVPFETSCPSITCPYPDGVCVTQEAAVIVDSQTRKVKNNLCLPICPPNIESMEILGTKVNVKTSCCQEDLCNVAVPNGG
In words: cell microarray, individual capsids, anti-AAV9 detection.
Method: To enable higher-throughput screening, the six capsids were tested as a pool. Pooled testing required additional dosage optimizing, first for the individual and then for the collective background binding levels of the included capsids (Table 5).

Test [7] has as its target T7, human interleukin 3 (IL3), expressed on microarray cells (human, UniProt P08700 20-152).
T7 construct: also called hIL3
T7 sequence: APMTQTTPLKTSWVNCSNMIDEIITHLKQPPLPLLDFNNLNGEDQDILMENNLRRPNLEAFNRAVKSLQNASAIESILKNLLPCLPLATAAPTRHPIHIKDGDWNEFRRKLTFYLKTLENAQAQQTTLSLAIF
Kind of test: cell microarray screen hit (title of Table 4).

In test [8] the target is T5, human low-density lipoprotein …. Kind of test: cell microarray screen.

T1 sequence (P55259 29-518): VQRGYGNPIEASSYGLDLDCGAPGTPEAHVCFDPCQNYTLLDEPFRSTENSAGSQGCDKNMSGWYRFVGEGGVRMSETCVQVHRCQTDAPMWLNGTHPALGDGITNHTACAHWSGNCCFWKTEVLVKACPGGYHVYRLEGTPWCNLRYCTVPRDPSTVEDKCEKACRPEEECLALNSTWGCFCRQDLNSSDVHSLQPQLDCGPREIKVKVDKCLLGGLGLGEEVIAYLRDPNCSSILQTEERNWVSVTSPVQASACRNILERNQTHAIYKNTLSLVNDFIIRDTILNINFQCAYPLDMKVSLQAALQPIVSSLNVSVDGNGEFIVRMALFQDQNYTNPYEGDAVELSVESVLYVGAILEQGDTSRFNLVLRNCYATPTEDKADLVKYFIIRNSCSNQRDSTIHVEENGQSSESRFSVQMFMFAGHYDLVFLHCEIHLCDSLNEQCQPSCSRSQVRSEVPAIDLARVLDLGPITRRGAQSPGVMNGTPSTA

B1: AAV9-X1.1 (other)
chain: MAADGYLPDWLEDNLSEGIREWWALKPGAPQPKANQQHQDNARGLVLPGYKYLGPGNGLDKGEPVNAADAAALEHDKAYDQQLKAGDNPYLKYNHADAEFQERLKEDTSFGGNLGRAVFQAKKRLLEPLGLVEEAAKTAPGKKRPVEQSPQEPDSSAGIGKSGAQPAKKRLNFGQTGDTESVPDPQPIGEPPAAPSGVGSLTMASGGGAPVADNNEGADGVGSSSGNWHCDSQWLGDRVITTSTRTWALPTYNNHLYKQISNSTSGGSSNDNAYFGYSTPWGYFDFNRFHCHFSPRDWQRLINNNWGFRPKRLNFKLFNIQVKEVTDNNGVKTIANNLTSTVQVFTDSDYQLPYVLGSAHEGCLPPFPADVFMIPQYGYLTLNDGSQAVGRSSFYCLEYFPSQMLRTGNNFQFSYEFENVPFHSSYAHSQSLDRLMNPLIDQYLYYLSRTIDGAATKNQTLKFSVAGPSNMAVQGRNYIPGPSYRQQRVSTTVTQNNNSEFAWPGASSWALNGRNSLMNPGPAMASHKEGEDRFFPLSGSLIFGKQGTGRDNVDADKVMITNEEEIKTTNPVATESYGQVATNHQSAQGNNTRSVAQAQTGWVQNQGILPGMVWQDRDVYLQGPIWAKIPHTDGNFHPSPLMGGFGMKHPPPQILIKNTPVPADPPTAFNKDKLNSFITQYSTGQVSVEIEWELQKENSKRWNPEIQYTSNYYKSNNVEFAVNTEGVYSEPRPIGTRYLTRNL
notes: also called AAV-X1.1; X1B10
As to B1, the binding result in test [1] was “binds”; in test [2], “binds”; in test [3] it was “binds”; in test [4] it was “binds”; in test [5] it was “binds”; in test [6], “no binding”. Also, the binding result in test [7] is “binds”.

B2: AAV.CAP-Mac (other)
chain: MAADGYLPDWLEDNLSEGIREWWALKPGAPQPKANQQHQDNARGLVLPGYKYLGPGNGLDKGEPVNAADAAALEHDKAYDQQLKAGDNPYLKYNHADAEFQERLKEDTSFGGNLGRAVFQAKKRLLEPLGLVEEAAKTAPGKKRPVEQSPQEPDSSAGIGKSGAQPAKKRLNFGQTGDTESVPDPQPIGEPPAAPSGVGSLTMASGGGAPVADNNEGADGVGSSSGNWHCDSQWLGDRVITTSTRTWALPTYNNHLYKQISNSTSGGSSNDNAYFGYSTPWGYFDFNRFHCHFSPRDWQRLINNNWGFRPKRLNFKLFNIQVKEVTDNNGVKTIANNLTSTVQVFTDSDYQLPYVLGSAHEGCLPPFPADVFMIPQYGYLTLNDGSQAVGRSSFYCLEYFPSQMLRTGNNFQFSYEFENVPFHSSYAHSQSLDRLMNPLIDQYLYYLSRTINGSGQNQQTLKFSVAGPSNMAVQGRNYIPGPSYRQQRVSTTVTQNNNSEFAWPGASSWALNGRNSLMNPGPAMASHKEGEDRFFPLSGSLIFGKQGTGRDNVDADKVMITNEEEIKTTNPVATESYGQVATNHQSAQLNTTKPIAQAQTGWVQNQGILPGMVWQDRDVYLQGPIWAKIPHTDGNFHPSPLMGGFGMKHPPPQILIKNTPVPADPPTAFNKDKLNSFITQYSTGQVSVEIEWELQKENSKRWNPEIQYTSNYYKSNNVEFAVNTEGVYSEPRPIGTRYLTRNL
notes: also called CAP-C1
For B2, the binding result is recorded as “binds” in test [2]; “binds” in test [3]; “binds” in test [4]; “no binding” in test [6]; “binds” in test [7]; “binds” in test [8].

The record behind these values is patent publication US20240139329A1 (CALIFORNIA INSTITUTE OF TECHNOLOGY, published 2024).
